% positive cells and MFI fold change to isotype ctrl data for one molecule are collected here from patent US20260234276A1.

The target of the assay is human CCR8 (human) (UniProt P51685). Briefly: flow cytometry, hCCR8 transfected CHOK1 cells. A general note: A flow cytometer gives signals particle by particle.

B1: 3-27 (antibody, V domains shown)
VH: EVKLVESGGGLVKSGGSLKLSCAASGFTFSSYAMSWVRQTPEKRLEWVASINSGGSIYYPDSVKGRFTISRDNARNILYLQMSSLRSEDTAMYYCARGFGAYWGQGTLVTVSA
VL: DIQMTQSPSSLSASLGERVTLTCRASQDIGSSLHWLQQEPDGTIKRLIYATSSLDSGVPKRFSGSRSGSDYSLTISSLESEDFVDYYCLQYATSPTFGGGTKLEIK
B1 had a % positive cells of 42.5% and an MFI fold change to isotype ctrl of 2.76 fold.
